What was measured:
MBP-IE86 full length = target: T1, MBP-IE86 full length (human cytomegalovirus, UniProt P19893 1-580); test: size-exclusion chromatography
T1 sequence: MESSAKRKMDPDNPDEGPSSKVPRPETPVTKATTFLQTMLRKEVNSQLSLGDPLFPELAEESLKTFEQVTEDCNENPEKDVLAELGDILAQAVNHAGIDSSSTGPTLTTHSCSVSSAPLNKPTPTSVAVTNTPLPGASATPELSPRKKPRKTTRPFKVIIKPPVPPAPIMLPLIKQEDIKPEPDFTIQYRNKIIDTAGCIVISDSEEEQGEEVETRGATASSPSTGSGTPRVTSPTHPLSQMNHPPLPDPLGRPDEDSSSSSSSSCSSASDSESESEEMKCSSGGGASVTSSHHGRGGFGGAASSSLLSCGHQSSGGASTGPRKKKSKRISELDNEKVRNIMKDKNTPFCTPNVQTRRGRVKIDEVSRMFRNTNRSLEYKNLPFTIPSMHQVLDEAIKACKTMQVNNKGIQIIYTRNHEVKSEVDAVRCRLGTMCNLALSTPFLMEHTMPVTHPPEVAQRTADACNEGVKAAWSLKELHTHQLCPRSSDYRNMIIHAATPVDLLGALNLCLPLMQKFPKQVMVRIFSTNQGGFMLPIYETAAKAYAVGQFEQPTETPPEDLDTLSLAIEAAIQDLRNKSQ

[1] = target: Maltose binding protein (MBP) (UniProt P0AEX9 27-396); test: size-exclusion chromatography

B1: FDC (28bp, phosphorothioate) (dsDNA)
DNA 1: GACAGATCGTTTAGTGAACCGTACACGA
DNA 2: TCGTGTACGGTTCACTAAACGATCTGTC
modifications: four phosphorothioate bonds per strand (* in table)
MBP-IE86 full length
  binding result: binds
[1]
  binding result: no binding

From publication doi:10.1101/464495
